From patent US20180334499A1 (Pieris, published 2018)

T1: recombinant human Ang-2 (human, UniProt O15123 19-496, limits assumed)
T1 construct: also called hAng-2; human angiopoietin-2
T1 sequence (looked up): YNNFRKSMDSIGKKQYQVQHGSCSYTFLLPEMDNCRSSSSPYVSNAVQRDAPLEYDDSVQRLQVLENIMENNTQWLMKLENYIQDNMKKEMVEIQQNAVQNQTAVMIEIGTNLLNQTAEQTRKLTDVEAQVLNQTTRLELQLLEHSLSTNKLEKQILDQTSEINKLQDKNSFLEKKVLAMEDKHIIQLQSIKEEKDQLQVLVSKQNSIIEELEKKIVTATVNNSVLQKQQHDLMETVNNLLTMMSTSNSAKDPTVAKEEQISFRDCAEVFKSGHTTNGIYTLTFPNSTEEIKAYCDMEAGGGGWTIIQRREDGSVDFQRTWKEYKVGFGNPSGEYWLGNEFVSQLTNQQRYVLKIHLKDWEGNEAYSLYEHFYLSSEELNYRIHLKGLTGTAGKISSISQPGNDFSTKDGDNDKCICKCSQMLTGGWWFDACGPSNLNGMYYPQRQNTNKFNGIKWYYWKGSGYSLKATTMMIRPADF


Target: T1, recombinant human Ang-2
Experiment: ELISA, recombinant human Ang-2 coated, detection with anti-human IgG Fc-HRP or anti-lipocalin-HRP, signal normalised (RU %)
Description: Bound agents under study were detected via an anti-human-IgG-Fc antibody or anti-lipocalin antibody as described in Example 3. The data was fit with a 1:1 binding model with EC50 value and the maximum signal as free parameters, and a slope that was fixed to unity.
The target was dissolved in PBS (5 μg/mL) and coated overnight on microtiter plates at 4° C. The plate was washed after each incubation step with 80 μL PBS-T five times. The plates were blocked with 2% BSA (w/v) in PBS for 1 h at room temperature and subsequently washed. […] Bound agents under study were detected after incubation for 1 h at room temperature with 1:1000 diluted anti-lipocalin antibody conjugated to HRP in PBS-T or 1:5000 diluted anti-human IgG Fc-HRP (#109-035-098, Jackson […]) in PBS-T. After an additional wash step, fluorogenic HRP substrate (QuantaBlu, Thermo) was added to each well and the fluorescence intensity was detected using a fluorescence microplate reader.

Binder | binding result | EC50 (read off the curve)
SEQ ID NO: 1 negative control (other, Lipocalin negative control; also called mature hNGAL) QDSTSDLIPAPPLSKVPLQQNFQDNQFQGKWYVVGLAGNAILREDKDPQKMYATIYELKEDKSYNVTSVLFRKKKCDYWIRTFVPGCQPGEFTLGNIKSYPGLTSYLVRVVSTNYNQHAMVFFKKVSQNREYFKITLYGRTKELTSELKENFIRFSKSLGLPENHIVFPVPIDQCIDG | no binding (tested: 100 nM) | 
lipocalin mutein of SEQ ID NO: 2 (designed binder, hNGAL mutein specific for Ang-2, tested in monomeric form; also called positive control lipocalin mutein; Ang-2-specific lipocalin mutein in monomeric form) QDSTSDLIPAPPLSKVPLQQNFQDNQFHGKWYVVGQAGNYILREDKDPGKMWATIYELKEDKSYDVTEVSFGAKKCNYRIWTFVPGSQPGEFTLGGIKSDPGGTSTLVRVVSTNYNQHAMVFFKHVLQNREFFEITLYGRTKELTSELKENFIRFSKSLGLPENHIVFPVPIDQCIDG |  | ~0.4 nM
lipocalin mutein of SEQ ID NO: 3 (designed binder, hNGAL mutein specific for Ang-2, tested in monomeric form; also called positive control lipocalin mutein; Ang-2-specific lipocalin mutein in monomeric form) QDSTSDLIPAPPLSKVPLQQNFQDNQFHGKWYVVGHAGNYILREDKDPGKMWATIYELKEDKSYDVTEVSFGPKKCNYRIWTFVPGSQPGEFTLGGIKSPPGGTSTLVRVVSTNYNQHAMVFFKHVLQNREFFEITLYGRTKELTSELKENFIRFSKSLGLPENHIVFPVPIDQCIDG |  | ~0.6 nM
